Read-outs that look alike come from different tables or passages of the source.
Experiments:
[1] = molecular target: T1, human TL1A (Fitzgerald, Prod. #30R-AT070) (human, UniProt O95150 72-251, limits assumed, biotinylated with EZ-Link Sulfo-NHS-LC-Biotin where used as soluble antigen); test: capture lift hit at 200 pM b-TL1A, unmutated sequence
T1 construct: also called TNFSF15; biotinylated human TL1A
T1 sequence (looked up): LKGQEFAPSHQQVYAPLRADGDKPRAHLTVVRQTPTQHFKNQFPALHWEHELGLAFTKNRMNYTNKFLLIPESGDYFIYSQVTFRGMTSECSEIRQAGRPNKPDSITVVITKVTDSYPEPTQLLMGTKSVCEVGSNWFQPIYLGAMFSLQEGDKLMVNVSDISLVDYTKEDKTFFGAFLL

[2] = molecular target: T2, human TL1A (endogenous, human whole blood assay) (human, UniProt O95150 1-251, limits assumed); test: cell-based or functional assay
T2 sequence (looked up): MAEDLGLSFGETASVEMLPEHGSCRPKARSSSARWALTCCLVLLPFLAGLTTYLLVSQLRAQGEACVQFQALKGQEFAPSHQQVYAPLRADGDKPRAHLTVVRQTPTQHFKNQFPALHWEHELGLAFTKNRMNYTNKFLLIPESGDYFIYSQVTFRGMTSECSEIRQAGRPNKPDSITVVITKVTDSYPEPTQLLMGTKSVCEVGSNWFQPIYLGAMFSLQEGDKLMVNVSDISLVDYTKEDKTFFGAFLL

[3] = molecular target: T3, Fas/TNFSF6 (R&D Systems, cat. no. 126-FL/CF) (UniProt P48023 134-281); test: ELISA, antigen coated at 1 µg/ml, Fab titrated
T3 sequence (looked up): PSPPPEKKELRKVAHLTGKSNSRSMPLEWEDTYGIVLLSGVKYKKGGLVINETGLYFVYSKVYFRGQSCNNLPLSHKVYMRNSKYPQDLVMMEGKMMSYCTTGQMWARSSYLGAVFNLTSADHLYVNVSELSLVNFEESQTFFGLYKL

[4] = molecular target: TRAIL/TNFSF10 (R&D Systems, cat. no. 375-TL/CF) (UniProt P50591 114-281); test: ELISA, antigen coated at 1 µg/ml, Fab titrated
[5] = molecular target: LIGHT/TNFSF14 (R&D Systems, cat. no. 664-LI/CF) (UniProt O43557 74-240); test: ELISA, antigen coated at 1 µg/ml, Fab titrated
[6] = molecular target: T4, membrane-associated human TL1A on transfected HEK293 cells (human, UniProt O95150 1-251); test: flow cytometry, HEK293 cells transfected with human TL1A
T4 construct: whole, on cells
T4 sequence (looked up): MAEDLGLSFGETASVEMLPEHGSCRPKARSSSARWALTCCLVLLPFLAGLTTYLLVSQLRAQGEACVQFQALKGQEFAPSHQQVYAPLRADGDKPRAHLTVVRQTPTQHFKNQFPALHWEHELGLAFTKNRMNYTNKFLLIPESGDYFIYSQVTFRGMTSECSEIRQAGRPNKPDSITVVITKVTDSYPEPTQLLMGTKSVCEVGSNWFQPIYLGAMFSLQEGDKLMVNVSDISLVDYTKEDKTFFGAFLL
Description: All the Fab variants were tested for binding to membrane-associated human TL1A. For these studies a HEK293 cell line that had been transfected with human TL1A was used. The 293 cells expressing membrane bound human TL1A were maintained in DMEM containing L-glutamine, glucose, sodium pyruvate, and phenol red (ThermoFisher cat #11995-065) plus 10% fetal bovine serum, 1X penicillin-streptomycin (Fisher cat #15140122) and 2 μg/ml puromycin (Gibco cat #A11138-03) in a 37° C. incubator with 5% CO2. Three days prior to the assay, a T-75 flask was seeded with 3×10⁶ cells so that the flask was 90-95% confluent on the day of the assay. The media was aspirated and the cell monolayer was gently washed with 5 ml PBS. Adherent cells were removed by repeatedly pipetting 10 ml ice cold 1% BSA/PBS against the monolayer. The cells were counted and 5×10⁵ were aliquoted for each sample to be analyzed. The cells were collected by centrifuging at 300× g at 4° C. for 5 minutes and the wash was discarded. The cells were resuspended in 100 μl Fab or IgG diluted in 1% BSA/PBS and placed on ice for 30 min. Next, the cells were washed with 1 ml 1% BSA/PBS and collected by centrifuging at 300× g at 4° C. for 5 min. The wash was discarded and 100 μl secondary goat F (ab′) 2 anti-human kappa FITC (Southern Biotech cat #2062-02) or goat F (ab′) 2 anti-human IgG PE (Southern Biotech cat #2043-09) conjugate, diluted 1:200 in BSA/PBS was added. Cells were placed on ice for 30 min. Finally, the cells were washed with 1 ml BSA/PBS, collected by centrifuging at 300× g at 4° C. for 5 min. The wash was removed and the cells were resuspended in 500 μl 1% BSA/PBS. One drop of Sytox AADvanced ReadyFlow Reagent (ThermoFisher cat #R37173) was added per sample and the samples were analyzed on the Attune NXT Flow Cytometer (ThermoFisher).

[7] = molecular target: T1, human TL1A (Fitzgerald, Prod. …); test: capture lift hit at 15 pM b-TL1A, unmutated sequence
[8] = molecular target: T5, cynomolgus TL1A (endogenous, cynomolgus whole blood) (cynomolgus monkey, UniProt G7PRK8 1-251); test: cell-based or functional assay
T5 sequence: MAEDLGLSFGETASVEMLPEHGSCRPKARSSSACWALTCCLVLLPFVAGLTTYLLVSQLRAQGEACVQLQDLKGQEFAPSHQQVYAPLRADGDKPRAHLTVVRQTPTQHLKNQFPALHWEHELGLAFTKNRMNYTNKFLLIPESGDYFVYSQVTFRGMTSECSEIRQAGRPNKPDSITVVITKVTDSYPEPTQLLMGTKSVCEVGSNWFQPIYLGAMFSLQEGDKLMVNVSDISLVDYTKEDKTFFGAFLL

[9] = molecular target: T2, human TL1A (endogenous, human whole …); test: cell-based or functional assay; remark: listed apart in the source
[10] = molecular target: T2, human TL1A (endogenous, human whole …); test: cell-based or functional assay; remark: listed apart in the source

TRAIL/TNFSF10 (R&D Systems, cat. no. 375-TL/CF), sequence (P50591 114-281 limits assumed): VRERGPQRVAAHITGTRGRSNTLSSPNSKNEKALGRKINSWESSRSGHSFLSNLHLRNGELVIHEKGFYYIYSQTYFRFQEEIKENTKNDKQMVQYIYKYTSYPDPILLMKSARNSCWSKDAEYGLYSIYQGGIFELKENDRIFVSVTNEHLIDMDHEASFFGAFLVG
LIGHT/TNFSF14 (R&D Systems, cat. no. 664-LI/CF), sequence (O43557 74-240 limits assumed): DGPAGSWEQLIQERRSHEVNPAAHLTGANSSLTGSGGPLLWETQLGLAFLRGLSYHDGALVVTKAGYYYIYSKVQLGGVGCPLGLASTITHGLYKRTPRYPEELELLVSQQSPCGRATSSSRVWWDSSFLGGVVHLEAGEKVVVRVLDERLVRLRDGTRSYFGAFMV

B1: L8 (CDR graft) Fab (Fab, V domains shown)
VH: QVQLVQSGAEVKKPGASVKVSCKASGFDIQDTYMHWVRQAPGQGLEWMGRIDPASGHTKYDPKFQVRVTMTRDTSTSTVYMELSSLRSEDTAVYYCARSGGLPDVWGQGTTVTVSS
VL: EIVLTQSPGTLSLSPGERATLSCRASSSVSYMYWYQQKPGQAPRLLIYATSNLASGIPDRFSGSGSGTDFTLTISRLEPEDFAVYYCQQWSGNPRTFGGGTKLEIK
notes: Fab; also called CDR graft clone L8; CDR-grafted variant
[1]
  binding result: binds

B2: 12835 (humanized 5C3D11) antibody, IgG format (antibody, V domains shown)
VH: QVQLVQSGAEVKKPGASVKLSCKASGFDIQDTYMHWVRQAPGQGLEWMGRIDPASGHTKYDPKFQVRVTMTTDTSTSTVYMELSSLRSEDTAVYYCSRSGGLPDVWGQGTTVTVSS
VL: EIVLTQSPGTLSLSPGERVTMSCRASSSVSYMYWYQQKPGQAPRPWIYATSNLASGVPDRFSGSGSGTDYTLTISRLEPEDFAVYYCQQWSGNPRTFGGGTKLEIK
[2]
  IC50, inhibition of IFN-γ production, human whole blood assay: 9.28 nM

B3: Clone L8mod Fab (Fab, V domains shown)
VH: QVQLVQSGAEVKKPGASVKVSCKASGFDIQDTYMHWVRQAPGQGLEWMGRIDPASGHTKYDPKFQGRATITTDTSASTAYLQLSSLRSEDTAVYYCARSGGLPDVWGQGTTVTVSS
VL: EIVLTQSPGTLSLSPGERATLSCRASSSVSYMYWYQQKPGQAPRLLIYATSNLASGIPDRFSGSGSGTDFTLTISRLEPEDFAVYYCQQWSGNPRTFGGGTKLEIK
notes: Fab
[3]
  binding result: no binding
[4]
  binding result: no binding
[5]
  binding result: no binding
[6]
  binding result: binds
[7]
  binding result: binds

B4: murine 5C3D11 monoclonal antibody (antibody, V domains shown)
VH: EVQLQQSGAELVKPGASVKLSCTASGFDIQDTYMHWVKQRPEQGLEWIGRIDPASGHTKYDPKFQVKATITTDTSSNTAYLQLSSLTSEDTAVYYCSRSGGLPDVWGAGTTVTVSS
VL: QIVLSQSPAILSASPGEKVTMTCRASSSVSYMYWYQQKPGSSPKPWIYATSNLASGVPDRFSGSGSGTSYSLTISRVEAEDAATYYCQQWSGNPRTFGGGTKLEIK
[2]
  IC50, inhibition of IFN-γ production, human whole blood assay: 1.38 nM
[8]
  Potency (IC50, nM), cynomolgus whole blood assay, mean: 0.18 nM

B5: clone 23, modified IgG1 / kappa (antibody)
heavy: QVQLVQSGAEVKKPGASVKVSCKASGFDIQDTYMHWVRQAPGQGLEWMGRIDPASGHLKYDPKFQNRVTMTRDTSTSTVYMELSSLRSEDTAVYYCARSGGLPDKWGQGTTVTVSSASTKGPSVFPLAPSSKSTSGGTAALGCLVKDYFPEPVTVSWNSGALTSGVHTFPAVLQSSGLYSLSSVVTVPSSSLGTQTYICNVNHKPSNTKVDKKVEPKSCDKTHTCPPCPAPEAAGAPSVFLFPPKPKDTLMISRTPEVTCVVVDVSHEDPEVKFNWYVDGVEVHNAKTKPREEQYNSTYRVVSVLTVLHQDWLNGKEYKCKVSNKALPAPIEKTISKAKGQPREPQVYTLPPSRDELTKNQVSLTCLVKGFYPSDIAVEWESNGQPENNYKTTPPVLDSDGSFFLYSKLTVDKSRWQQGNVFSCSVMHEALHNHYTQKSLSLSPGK
light: EIVLTQSPGTLSLSPGERATLSCRASSSVSYMYWYQQKPGQAPRLLIYATSNLASGIPDRFSGSGSGTDFTLTISRLEPEDFAVYYCQQWEGNPRTFGGGTKLEIKRTVAAPSVFIFPPSDEQLKSGTASVVCLLNNFYPREAKVQWKVDNALQSGNSQESVTEQDSKDSTYSLSSTLTLSKADYEKHKVYACEVTHQGLSSPVTKSFNRGEC
[9]
  Potency (IC50, nM), human whole blood assay, mean: 0.64 nM
[8]
  Potency (IC50, nM), cynomolgus whole blood assay, mean: 0.72 nM
[10]
  IC50, inhibition of IFN-γ production, human whole blood assay: 0.41 nM

B6: clone 14, modified IgG1 / kappa (antibody)
heavy: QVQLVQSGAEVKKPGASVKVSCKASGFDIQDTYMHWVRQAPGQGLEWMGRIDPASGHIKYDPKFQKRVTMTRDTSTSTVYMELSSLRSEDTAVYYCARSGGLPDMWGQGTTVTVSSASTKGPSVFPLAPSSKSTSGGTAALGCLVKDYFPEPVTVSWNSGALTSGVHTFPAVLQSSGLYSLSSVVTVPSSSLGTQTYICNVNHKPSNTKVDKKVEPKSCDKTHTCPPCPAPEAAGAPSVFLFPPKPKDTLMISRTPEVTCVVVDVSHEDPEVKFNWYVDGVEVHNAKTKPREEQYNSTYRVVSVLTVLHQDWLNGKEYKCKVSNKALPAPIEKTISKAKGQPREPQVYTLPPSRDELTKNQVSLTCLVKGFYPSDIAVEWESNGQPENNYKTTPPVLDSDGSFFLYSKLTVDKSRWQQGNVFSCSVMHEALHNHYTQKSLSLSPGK
light: EIVLTQSPGTLSLSPGERATLSCRASSSVSYMYWYQQKPGQAPRLLIYATSNLASGIPDRFSGSGSGTDFTLTISRLEPEDFAVYYCQQWQGNPRTFGGGTKLEIKRTVAAPSVFIFPPSDEQLKSGTASVVCLLNNFYPREAKVQWKVDNALQSGNSQESVTEQDSKDSTYSLSSTLTLSKADYEKHKVYACEVTHQGLSSPVTKSFNRGEC
[9]
  Potency (IC50, nM), human whole blood assay, mean: 0.3 nM
[8]
  Potency (IC50, nM), cynomolgus whole blood assay, mean: 0.28 nM
[10]
  IC50, inhibition of IFN-γ production, human whole blood assay: 0.19 nM

B7: clone 34, modified IgG1 / kappa (antibody)
heavy: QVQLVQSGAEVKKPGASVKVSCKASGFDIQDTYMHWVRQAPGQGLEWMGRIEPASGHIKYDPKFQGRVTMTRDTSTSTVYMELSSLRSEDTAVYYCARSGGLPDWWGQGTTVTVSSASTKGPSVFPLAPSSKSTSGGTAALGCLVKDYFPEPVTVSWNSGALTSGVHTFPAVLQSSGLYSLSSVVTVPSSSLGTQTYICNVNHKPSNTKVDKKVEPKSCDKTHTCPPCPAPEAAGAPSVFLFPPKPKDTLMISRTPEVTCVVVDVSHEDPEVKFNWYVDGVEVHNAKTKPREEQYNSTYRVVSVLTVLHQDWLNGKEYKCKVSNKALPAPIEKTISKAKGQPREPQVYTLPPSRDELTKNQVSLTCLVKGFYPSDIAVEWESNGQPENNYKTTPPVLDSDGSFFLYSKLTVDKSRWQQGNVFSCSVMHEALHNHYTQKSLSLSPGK
light: EIVLTQSPGTLSLSPGERATLSCRASSSVSYMYWYQQKPGQAPRLLIYATSNLASGIPDRFSGSGSGTDFTLTISRLEPEDFAVYYCQQWEGNPRTFGGGTKLEIKRTVAAPSVFIFPPSDEQLKSGTASVVCLLNNFYPREAKVQWKVDNALQSGNSQESVTEQDSKDSTYSLSSTLTLSKADYEKHKVYACEVTHQGLSSPVTKSFNRGEC
[9]
  Potency (IC50, nM), human whole blood assay, mean: 0.24 nM
[8]
  Potency (IC50, nM), cynomolgus whole blood assay, mean: 0.21 nM
[10]
  IC50, inhibition of IFN-γ production, human whole blood assay: 0.18 nM

B8: clone 53, modified IgG1 / kappa (antibody, V domains shown)
VH: QVQLVQSGAEVKKPGASVKVSCKASGFDIQDTYMHWVRQAPGQGLEWMGRIEPASGHLKYDPKFQERVTMTRDTSTSTVYMELSSLRSEDTAVYYCARSGGLPDKWGQGTTVTVSS
VL: EIVLTQSPGTLSLSPGERATLSCRASSSVSYMYWYQQKPGQAPRLLIYATSNLASGIPDRFSGSGSGTDFTLTISRLEPEDFAVYYCQQWEGNPRTFGGGTKLEIKR
[2]
  fold greater potency towards human TL1A than cynomolgus TL1A, whole blood assays: ~2 fold
[9]
  Potency (IC50, nM), human whole blood assay, mean: 0.59 nM
[8]
  Potency (IC50, nM), cynomolgus whole blood assay, mean: 1.32 nM
[10]
  IC50, inhibition of IFN-γ production, human whole blood assay: 0.39 nM

Reference: patent publication US20240368263A1 (PROMETHEUS BIOSCIENCES, published 2024)
